Like-named read-outs stand apart in the source and are kept apart here.
Key:
[1] = molecular target: HLA-DR1 (DRα1*0101/DRβ1*0101) refolded in the absence of peptide; assay: IC50 APL stability assay (peptide binding to DR1); settings: read off a plot
[2] = molecular target: HLA-DR4 (DRα1*0101/DRβ1*0401) with the influenza hemagglutinin peptide HA306-318 (human | influenza virus); assay: SPR
[3] = molecular target: HLA-DR4 (DRα1*0101/DRβ1*0401) with the influenza hemagglutinin peptide HA306-318 (human | influenza virus); assay: SPR; remark: listed apart in the source
[4] = molecular target: HLA-DR4 (DRα1*0101/DRβ1*0401) with the influenza hemagglutinin peptide HA306-318 (human | influenza virus); assay: SPR; remark: listed apart in the source
[5] = molecular target: HLA-DR1 (DRα1*0101/DRβ1*0101) with the influenza hemagglutinin peptide HA306-318 (human | influenza virus); assay: SPR
[6] = molecular target: HLA-DR1 (DRα1*0101/DRβ1*0101) with the influenza hemagglutinin peptide HA306-318 (human | influenza virus); assay: SPR; remark: listed apart in the source
[7] = molecular target: HLA-DR4 (DRα1*0101/DRβ1*0401) with the influenza hemagglutinin peptide HA306-318 (human | influenza virus); assay: SPR; remark: listed apart in the source
[8] = molecular target: HLA-DR4 (DRα1*0101/DRβ1*0401) with the influenza hemagglutinin peptide HA306-318 (human | influenza virus); assay: SPR; remark: listed apart in the source
[9] = molecular target: HLA-DR1 (DRα1*0101/DRβ1*0101) with the influenza hemagglutinin peptide HA306-318 (human | influenza virus); assay: SPR; remark: listed apart in the source
[10] = molecular target: HLA-DR1 (DRα1*0101/DRβ1*0101) with the influenza hemagglutinin peptide HA306-318 (human | influenza virus); assay: SPR; remark: listed apart in the source
[11] = molecular target: HLA-DR1 (DRα1*0101/DRβ1*0101) with the influenza hemagglutinin peptide HA306-318 (human | influenza virus); assay: SPR; remark: listed apart in the source

HA306-318 peptide (wild-type HA) N312T
IC50 ([1]; parent: est. 12): 0.015 µM

HA306-318 peptide (wild-type HA) V309R
IC50 ([1]; parent: est. 12): 0.021 µM

HA306-318 peptide (wild-type HA) N312S
IC50 ([1]; parent: est. 12): 0.012 µM

HA306-318 peptide (wild-type HA) N312F
IC50 ([1]; parent: est. 12): 0.006 µM

HA306-318 peptide (wild-type HA) N312K
IC50 ([1]; parent: est. 12): 0.018 µM

HA306-318 peptide (wild-type HA) Y308A
IC50 ([1]; parent: est. 13): 22 µM

HA306-318 peptide (wild-type HA) N312Q
IC50 ([1]; parent: est. 12): 0.011 µM

HA306-318 peptide (wild-type HA) K307S
IC50 ([1]; parent: est. 12): 0.022 µM

HA306-318 peptide (wild-type HA) K315H
IC50 ([1]; parent: est. 12): 0.013 µM

HA306-318 peptide (wild-type HA) K310V
IC50 ([1]; parent: est. 12): 0.01 µM

HA306-318 peptide (wild-type HA) V309E
IC50 ([1]; parent: est. 12): 0.03 µM

HA1.7 TCR (soluble, extracellular variable and constant domains with an engineered disulphide link)
Kd [2]: 55 µM
Kd [3]: 291 µM
Kd [4]: 1270 µM
dH [4]: 16 kcal/mol
Kd [5]: 531 µM
dH [5]: 18 kcal/mol
Kd [6]: 204 µM
Kd [7]: 48 µM
Kd [8]: 89 µM
Kd [9]: 62 µM
Kd [10]: 28 µM
Kd [11]: 36 µM

HA306-318 peptide (wild-type HA) K310F
IC50 ([1]; parent: est. 12): 0.008 µM

From article PMC3432979
